Assay results taken from PMC11218997, “Human cytomegalovirus deploys molecular mimicry to recruit VPS4A to sites of virus assembly” (PLOS Pathogens, 2024).

T1: VPS4A MIT domain (residues 1–84) (human, UniProt Q9UN37 1-84)
T1 construct: human VPS4A, MIT domain, residues 1-84 of UniProt Q9UN37; cloned into pOPT3G with an N-terminal GST and a human rhinovirus 3C site; the tag was removed with 3C protease; also called VPS4 MIT domain; source: E. coli T7 Express lysY/Iq, purified (glutathione Sepharose, 3C cleavage, SEC); not shown: GST, N-terminal, cleaved
T1 sequence (looked up): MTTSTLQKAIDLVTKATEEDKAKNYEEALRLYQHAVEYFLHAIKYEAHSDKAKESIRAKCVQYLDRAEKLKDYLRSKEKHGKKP

T2: VPS4A MIT domain (residues 1–84) (human, UniProt Q9UN37 1-84)
T2 chain: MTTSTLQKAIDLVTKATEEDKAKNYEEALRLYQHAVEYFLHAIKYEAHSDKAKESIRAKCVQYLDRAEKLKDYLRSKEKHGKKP


Legend:
[1] = biological target: T1, VPS4A MIT domain (residues 1–84); assay: ITC; titrants (GST-pUL71, GST-CHMP6 or peptides) titrated into VPS4A MIT domain in the cell; 25°C; 50 mM HEPES pH 8, 100 mM NaCl, 0.5 mM TCEP; 19×2 μL or 12×3 μL injections; one-site binding model; conditions: both partners purified
[2] = biological target: T2, VPS4A MIT domain (residues 1–84); assay: ITC
[3] = system: pUL71 (YN fusion, TB71-YN); assay: Bimolecular fluorescence complementation in TB71-YN infected MRC-5 cells; assay type: cell-based, HCMV; conditions: MRC-5 infected with TB71-YN, MOI 1, 5 dpi
Text: HCMV strains AD169 [92], Toledo [93], Merlin [94], VR1814 [95] and TB40/E [96] and two clinical isolates (isolates 19 and 20, kindly provided by C. Sinzger, Ulm University Hospital, Germany) were used in this study. This panel was chosen as it covers the most commonly used cell culture passaged strains and two isolates that grow highly cell associated. In addition, bacmid derived viruses were used. Reconstituted virus from bacterial artificial chromosome (BAC) clone TB40-BAC4 of the endotheliotropic HCMV strain TB40/E (accession number EF999921.1.) served as wild type virus (WT) in this study. Generation and propagation of recombinant viruses, TBstop71 and TBrev71 have been described elsewhere. […] The recombinant virus TB71-YN used for bimolecular fluorescence complementation (BiFC) assay, was generated by markerless BAC mutagenesis from BAC clone TB40-BAC4 by inserting the sequences corresponding to a (GGGGS)2-linker sequence, the c-myc-tag and the N-terminal fragment of the yellow fluorescent protein (YFP) variant Citrine, comprising amino acids 1–173 (YN), before the stop codon of the UL71 open reading frame. […]

Molecule	Kd [1] [µM]	dH [1] [kcal/mol]	stoichiometry N [1]	Kd [2] [µM]	Citrine fluorescence (BiFC) [3]
EQIELPEVPSEPLPEK (domain or fragment, human, UniProt Q96FZ7 166-181, looked up, human CHMP6 MIM2; pGEX4T2, annealed primers pGEX CHMP6 MIM2 fwd and rev; also called GST-tagged CHMP6 MIM2 motif; source: E. coli, purified following bacterial expression; not shown: GST, N-terminal, kept) [GST-CHMP6 MIM2]	5.54	-2.37	0.84	15.3	
YC-VPS4A-FLAG-L64D (protein, left off: Citrine residues 156-239 with A206K (YC), N-terminal, kept | FLAG, C-terminal, kept) MTTSTLQKAIDLVTKATEEDKAKNYEEALRLYQHAVEYFLHAIKYEAHSDKAKESIRAKCVQYDDRAEKLKDYLRSKEKHGKKPVKENQSEGKGSDSDSEGDNPEKKKLQEQLMGAVVMEKPNIRWNDVAGLEGAKEALKEAVILPIKFPHLFTGKRTPWRGILLFGPPGTGKSYLAKAVATEANNSTFFSVSSSDLMSKWLGESEKLVKNLFELARQHKPSIIFIDEVDSLCGSRNENESEAARRIKTEFLVQMQGVGNNNDGTLVLGATNIPWVLDSAIRRRFEKRIYIPLPEEAARAQMFRLHLGSTPHNLTDANIHELARKTEGYSGADISIIVRDSLMQPVRKVQSATHFKKVCGPSRTNPSMMIDDLLTPCSPGDPGAMEMTWMDVPGDKLLEPVVCMSDMLRSLATTRPTVNADDLLKVKKFSEDFGQES					Citrine fluorescence was detected
